In PMC3202669 one finds fold reduction of binding against WT data, which are given here for 1 substance.

This assay deals with 7c12 monobody displayed on phage. The experiment in a line: ELISA.

In turn, GST-Abl SH2 I164E (domain or fragment) came in with a fold reduction of binding against WT of 400 fold.
